B1: ZNF8 (parent)
chain: RTHTGEKPYTCSVCGKSFSRTTCL
B2: INTS4 (parent)
chain: IRLVDDAFGKICHMVSDGSWVVRV
B3: CLPTM1 (parent)
chain: MNLHVYISEHEHFTDFNATSALFW

Variants of: B1
Test: protein stability index of a GFP-peptide fusion (GPS, HEK-293T) (PSI 1-6); higher = more stable
Conditions: c terminus: a fixed tail appended
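Further: lentivirally expressed fusions sorted by FACS into six bins by GFP to DsRed ratio, PSI derived from sequencing read proportions per bin multiplied by bin number.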

Protein stability index, by site and new letter:
C14: K 3.06
S17: W 1.82
H3: P 2.46
T2: N 2.49

Variants of: B2
Test: as above
Conditions: c terminus: a fixed tail appended

Protein stability index of substitutions, site by site:
I1: Y 2.87, M 3.29, K 3.49, C 2.39, E 2.77, T 3.21, P 2.78, N 3.6, F 4.01, Q 3.89, A 2.67, H 3.54
K10: R 4.19, C 3.27, L 2.96, N 1.78, F 2.4, P 2.29, G 2.29, I 2.57
C12: D 3.58, N 2.44, K 4.92, H 2.35, F 1.73, G 5.66, W 3, T 2.91, A 3.65, R 4.2, P 3.97, Q 2.82
I11: V 3.14, Q 2.63, S 2.87, H 3.47, C 2.87, M 2.41, Y 3.31, N 2.3
D6: T 3.69, E 3.96, V 2.35, G 2.84, N 4.84, M 3.24, Q 4.08, R 2.21, L 1.98, W 2.88
R2: A 3.67, V 4.66, F 4.79, M 2.78, S 2.96
H13: M 3.09, A 3.2, P 2.63, S 1.3, Y 2.38, D 3.12, K 3.46, I 3.17, G 2.97
M14: I 2.62, F 3.85, P 2.76, Q 1.49, S 2.48, V 4.58, N 5.13, T 3.71, Y 1.64, R 1.53, A 2.75, H 3.19, D 4.2
G9: R 2.17, F 3.37, P 3.75, K 1.85, M 2.96, V 2.6, E 1.14, Y 3.11
V21: C 3.07, E 2, L 2.25, Y 4.71, P 1.98, T 2.18, F 2.62, K 3.29, G 1.89, R 2.88, H 3.08
W20: V 3.08, A 3.43, F 2.47, Q 3.26, K 1.36, Y 2.87, H 3.71, R 2.79, G 1.7, E 1.64, L 2.83, D 1.61, I 2.89
S16: C 2.56, N 2.52, R 2.56, E 2.31, V 1.29, Q 2.47, W 1.91, F 2.14, D 1.29, I 2.59, M 2.25, L 3.17
D5: S 2.3, R 1.8, F 4.33, V 2.32, Y 3.78, C 3.07, G 3.16, K 3.01, L 3.22, T 3.23, I 2.67, A 2.73, P 2.53
S19: C 1.73, Q 3.45, W 1.01, I 3.87, M 2.38, V 3.96, T 3.28, F 2.73, H 3.8, A 2.89, P 3.43, K 2.25, L 2.95, D 3.41, G 1.58
A7: K 2.09, L 3.62, F 2.22, D 2.86, W 3.37, M 2.62, S 4.46, G 2.95
F8: D 4.44, H 2.19, K 2.31, M 2.69, E 3.82, G 1.6, P 2.54, Y 2.45, Q 2.5, C 2.59, R 2.46, S 3.94, W 3.06, I 2.78
L3: W 1.97, R 2.08, I 3.47, E 3.14, C 1.72, V 3.33, F 2.76, H 2.17, A 3.09
R23: I 3.28, N 2.02, S 2.39, L 4.2, H 2.94, C 3.87, T 1.88, D 2.15, E 2.13, F 3, A 4.14, M 3.4, G 2.32
V24: D 1.47, R 3.03, Q 2.04, W 1.57, S 2.31, K 1.58, H 2.79, C 2.68, Y 3.37, P 3.21, M 1.46, T 4, N 1.42, I 3.12, F 3.03
V15: P 3.17, R 3.53, L 2.74, G 3.51, I 2.87, Q 3.06, C 4.47, D 2.06, N 3.28, F 2.51, S 1.84, A 3.99, K 2.06, T 3.2, H 2.22
V22: T 4.7, C 3.31, W 2.35, Y 4.15, I 3.27, L 2.82, F 3.53, K 3.02, E 2.56, D 3.6, H 2.78, R 3.28
G18: E 2.57, I 3.15, N 2.01, Y 1.62, P 4.4, D 3.61, S 1.88, M 1.8, T 1.95, K 3.25, R 2.9, F 2.29
D17: E 2.35, C 2.15, N 2.41, G 2.05, K 1.48, M 1.92, H 3.91, W 2.22, F 1.24, R 2.02, S 3.98, P 2.05, A 3.62, Q 3.32, L 2.79, V 3.15
V4: K 3.23, I 3.33, T 1.88, F 2.26, L 4.43, R 1.47, P 2.57, C 2.16, M 4.21, S 2.82, A 3.46, Y 2.46, N 1.36

Variants of: B3
Test: as above
Conditions: c terminus: a fixed tail appended

Protein stability index: each site, then its substitutions
M1: N 3.69, Q 2.58, I 3.18, E 1.33, V 3.6, T 2.97, D 1.72, P 1.93, G 2.8, R 2.51, F 2.29, Y 2.55, S 2.69, K 2.95
N2: T 2.58, C 2.73, I 2.04, G 2.73, P 1.55, Y 2.55, S 4.89, L 2.57, F 3.32, M 2.77, D 1.53, Q 1, V 3.88
L3: N 1.2, V 1.14, F 2.7, E 2.62, S 2.15, I 3.08, D 2.44, Q 1.42, P 1.52, W 1.98, G 2.78, R 1.96, T 1.47, C 1.94, M 2.18, K 1.9
H4: Y 4.32, P 1.43, M 2.69, K 1.99, E 1.45, F 1.89, W 4.27, L 2.97, R 5.47, I 2.62, Q 2.12

Source: the supplement of paper PMC10567573
